This is an account of results in patent US20090136506A1, “Conserved Membrane Activator of Calcineurin (CMAC), a Novel Therapeutic Protein and Target” (priority 2005, published 2009).

Format in all cases: cell-based
For data set [1], the system named is NFAT-1. In words: NFAT-1 translocation in Jurkat cells. The conditions noted are these: PMA alone. How it is done: (§1) Fixing and staining Jurkat cells, NFAT translocation assay: Following treatment Jurkat cells were attached to 96 well plates using the Becton Dickinson Cell-Tak cell adhesive. The suspension cells were centrifuged (800×G) for 5 min onto precoated plates (as per manufacturer's instruction). The attached cells were permeabilized in 3.7% formaldehyde, 0.5% Triton X100 and washed twice with wash buffer (0.5% Triton X100 in PBS) and blocked with 2% BSA, 0.1% Triton X100 in PBS. The cells were incubated in primary antibodies NFAT-1 (Cellomics K01-0011-1 diluted 1:100) and NFAT-2 (Affinity Bioreagents MA3-024 diluted 1:250) in blocking buffer for 1 hour at room temperature. Cells were washed twice with wash buffer and incubated with secondary goat anti-mouse IgG conjugated to Alexa Fluor 488 GαM (Cellomics K01-0011-1 reagents antibody diluted 1:2000, and Hoechst dye 1:2000) in blocking buffer. Cells were washed once with PBS and imaged. […]
(§2) The effect of cMAC on the nuclear translocation of the transcription factor NFAT and its dependence on calcineurin was also examined. […] While NFAT-1 and NFAT-2 were detected in the cytoplasm of control virus infected cells, both isoforms of NFAT were localized primarily in the nucleus in a large proportion of cMAC transduced cells. […]

For data set [2], the system named is NFAT-2. In words: NFAT-2 translocation in Jurkat cells. The conditions noted are these: PMA alone. The protocol: as §1, §2
In data set [3] the test system is ICOS. Nature of the data set: Jurkat T-cell activation, ICOS surface marker expression. Particulars: Jurkat cells, PMA alone. The protocol:
(§3) Transduction and sensitization of Jurkat cells: Jurkat cells were maintained in RPMI 1640 (GIBCO 21870-076) 10% FC1 Fetal clone1 (Hyclone), 1% Pen/Strep, 1% Glutamax1, 0.1% beta mercaptoethanol. Prior to transduction the cells were switched to transduction media which contains: RPMI 1640 (above) fortified with 2.25 g glucose 1% antibiotic/antimycotic, 1% 1M Hepes (Gibco), 1% 100 mM sodium pyruvate, 10 ml 7.5% Sodium Bicarbonate 10% Fetal Clone serum 1. Cells were seeded 5×104 in transduction media combined with virus (volume in legend) and 4 ug/ml polybrene final concentration and centrifuged at ˜800×g for 3 hrs. For activation of ICOS and IL-2 expression experiments cells were transduced with 50 μl of retroviral supernatant (QL-GW-Final-Kan) and 48 hours post transduction the media was fortified with PMA (phorbol 12-myristate 13-acetate) 10 ng/ml and 24 hours after addition the cells or media were removed for ICOS or IL-2 measurements. […]
(§4) Analysis of ICOS surface marker and IL-2 protein expression: 1.5 uL of ICOS-PE (BD-Parmingen 557802) was combined with ˜1×10^6 Jurkat cells and incubated on ice for 30 min. Cells were centrifuged ˜500×g 5 min and washed 2×PBS and the mean channel flourescence determined using flow cytometry (BD FACSCaliber). IL-2 levels were measured using the QuantiGlo IL-2 Elisa kit (R&D Systems).
(§5) We assessed the role of TRPV6 and cMAC in a T-cell activation screen. […]

Data set [4] deals with IL-2. Nature of the data set: Jurkat T-cell activation, IL-2 protein (ELISA). Particulars: Jurkat cells, PMA alone. The protocol:
as §3, §4, §5

Data set [5] has as its system cMAC mediated translocation of TORC1-eGFP. In words: TORC1-eGFP translocation in HeLa:TORC1-eGFP cells transduced with human cMAC. Particulars: EGTA in the medium; reversed by excess calcium (data not shown).
In data set [6] the test system is IL-2. In words: IL-2 production of TCR/CD28 activated Jurkat T-cells after viral shDNA transduction. Particulars: TCR/CD28 activated 6 days post transduction; for Average IL-2 % inhibition: pLKO.1 shDNA, puromycin selected, IL-2 normalized to viable cells. How it is done: as §4
Jurkat cell activation for shDNA inhibition studies: To assess shDNA efficacy, Jurkat cells (15000) were transduced with 10 μL LKO virus as described and 24 hours post transduction the media was fortified with puromycin (see below). Six days post transduction half the cells were activated with antibodies targeting TCR and CD28 receptors bound to a 96 well plate surface and incubated overnight and the media was collected for IL-2 determination. The remaining cells were used to determine the fraction of viable cells in each well using the Cell Titer-Glo assay (see below).
The activation plates were prepared by coating goat anti-mouse IgG, Fcγ fragment specific antibody (Jackson ImmunoResearch Laboratories) 55 μl per well at a final concentration of 10 μg/ml in PBS. The plates were incubated 3 hours at room temperature. Excess IgG was removed and plates were blotted. Plates were blocked with 300 μL 2% BSA/PBS (BSA, Fraction V lyophilizate, Roche) and incubated for 2 hours at room temperature. The plates were washed 3 times with PBS and stimulating antibodies anti-TCR 0.01 ug/ml (BD Biosciences 347770 clone WT31) and anti-CD28 0.3 ug/ml (BD Pharmingen 555725) in 2% BSA/PBS final volume 50 μL/well. Plates were incubated overnight and washed 3 times with PBS prior to addition of cells for activation.
(§6) Puromycin selection of shDNA transduced Jurkat cells and normalization for cell survival: The LKO viral vector used in this study contains a puromycin selection marker. Jurkat cells infected with shDNA constructs (LKO.1) were put under puromycin selection 24 hrs post infection by addition of puromycin (2 μg/ml) and maintained for the duration of the experiment (6 days post infection, 3 days for mRNA quantitation). To account for differences in cell number after puromycin selection (possibly due to variations in viral titer), we adopted a cellular ATP assay which is proportional to cell number (Cell Titer-Glo Luminescent Assay Kit, Promega). The assay was performed as per the manufacturer's instruction. A standard curve was generated for each cell type to determine linearity for the assay. The IL-2 concentrations were normalized to cell number by dividing the calculated IL-2 concentration by the rLU values for the cell titer-glo assay, which is equivalent to IL-2 expression/cell number. The mRNA expression levels were determined 3 days post infection.
To assess whether cMAC was essential for T-cell activation, we designed several shDNA constructs targeting cMAC. In these experiments Jurkat T-cells were transduced with viral constructs targeting cMAC or another unrelated gene. 6 days post transduction, the cells were activated with TCR/CD28 antibodies and the level of cMAC mRNA and IL-2 secreted into the media was measured. […] FIG. 10.

Data set [7] concerns cMAC mRNA. Nature of the data set: cMAC mRNA knockdown in shDNA transduced Jurkat cells. The conditions noted are these: for Average cMAC mRNA % Inhib.: 3 days post infection (2 days post puromycin selection). How it is done: as §6
Determination of mRNA knockdown for cMAC: Jurkat mRNA expression levels were determined 3 days post infection (2 days post puromycin selection).
To determine the specificity of the shDNA construct, the reduction of cMAC mRNA was measured for each construct (Table 8) and compared to the inhibition of IL-2 observed. The pGL3-Luc and CD29 shDNA constructs served as negative controls. […] In those instances it may be that the shDNA is causing decreases in the expression of cMAC protein through microRNA effects. Thus, it appears that with the exception of 2 constructs (BL6 and BL8) the phenotypically active IL-2 constructs correlate with reduced cMAC mRNA levels.

For data set [8], the system named is CD29 mRNA. Nature of the data set: CD29 mRNA knockdown by shDNA construct.

For `CCCCCCCCCCCCCC(=O)O[C@@H]1[C@@H](C)[C@@]2(O)[C@@H](C=C(CO)C[C@]3(O)C(=O)C(C)=C[C@@H]23)[C@@H]2C(C)(C)[C@]12OC(C)=O` [PMA, phorbol 12-myristate 13-acetate], the “effect on NFAT-1 translocation” value in data set [1] was “no effect”. Besides, the “effect on NFAT-2 translocation” value in data set [2] is on record as “no effect”. In data set [3], the “upregulation of ICOS expression levels” value is listed as “did not upregulate”. Moreover, the “upregulation of IL-2” value in data set [4] is listed as “did not upregulate”.
With `O=C(O)CN(CCOCCOCCN(CC(=O)O)CC(=O)O)CC(=O)O` [EGTA], in data set [5], the “effect on cMAC induced nuclear TORC1 translocation” value is “blocked”.

B1: cMAC BL6: shDNA construct in pLKO.1 lentiviral vector, target sequence actagaatgttgacctcga (SEQ ID NO: 117) (nucleic acid)
sense: CCGGACTAGAATGTTGACCTCGATTCAAGAGATCGAGGTCAACATTCTAGTTTTTT
antisense: AATTAAAAAACTAGAATGTTGACCTCGATCTCTTGAATCGAGGTCAACATTCTAGT
With B1, in data set [6], the IL-2 reduction entry was “without any IL-2 reduction” and the “Average IL-2 % inhibition” value is −9.34%. Also, in data set [7], the “Average cMAC mRNA % Inhib.” value worked out at 35.8%. For the same molecule, the “Average cMAC mRNA % Inhib.” value in data set [7] (listed as BL6) is 36%.

B2: cMAC BL9: shDNA construct in pLKO.1 lentiviral vector, target sequence caggaatgtcctccaacca (SEQ ID NO: 126) (nucleic acid)
sense: CCGGCAGGAATGTCCTCCAACCATTCAAGAGATGGTTGGAGGACATTCCTGTTTTT
antisense: AATTAAAAACAGGAATGTCCTCCAACCATCTCTTGAATGGTTGGAGGACATTCCTG
As to B2, the “Average IL-2 % inhibition” value in data set [6] is listed as 37.8%. Moreover, the “Average cMAC mRNA % Inhib.” value in data set [7] was 54.8%.

B3: cMAC BL5: shDNA construct in pLKO.1 lentiviral vector, target sequence gatttaagcctccctaaga (SEQ ID NO: 114) (nucleic acid)
sense: CCGGGATTTAAGCCTCCCTAAGATTCAAGAGATCTTAGGGAGGCTTAAATCTTTTT
antisense: AATTAAAAAGATTTAAGCCTCCCTAAGATCTCTTGAATCTTAGGGAGGCTTAAATC
In the case of B3, the “Average IL-2 % inhibition” value in data set [6] turned out to be 72.2%. Moreover, the “Average cMAC mRNA % Inhib.” value in data set [7] amounted to 67.0%.

B4: CD29 shDNA construct: negative control shDNA construct targeting CD29, target sequence ggtagaaagtcgggacaaa (SEQ ID NO: 132) (nucleic acid)
sense: CCGGGGTAGAAAGTCGGGACAAATTCAAGAGATTTGTCCCGACTTTCTACCTTTTT
antisense: AATTAAAAAGGTAGAAAGTCGGGACAAATCTCTTGAATTTGTCCCGACTTTCTACC
Consider B4, for which, in data set [8], the “reduction of CD29 mRNA” value was “potently reduced CD29 mRNA”. For the same molecule, in data set [7], the “effect on cMAC message” value was “no effect”.

B5: cMAC MB4: shDNA construct in pLKO.1 lentiviral vector, target sequence ccttgggcuggcactcttatt (SEQ ID NO: 129) (nucleic acid)
sense: CCGGCCTTGGGCUGGCACTCTTATTCAAGAGATAAGAGTGCCAGCCCAAGGTTTTT
antisense: AATTAAAAACCTTGGGCTGGCACTCTTATCTCTTGAATAAGAGTGCCAGCCCAAGG
As to B5, the “Average IL-2 % inhibition” value in data set [6] amounted to 78.9%. Moreover, the “Average cMAC mRNA % Inhib.” value in data set [7] worked out at 65.9%.

B6: cMAC BL3: shDNA construct in pLKO.1 lentiviral vector, target sequence catctttgttggcctacga (SEQ ID NO: 108) (nucleic acid)
sense: CCGGCATCTTTGTTGGCCTACGATTCAAGAGATCGTAGGCCAACAAAGATGTTTTT
antisense: AATTAAAAACATCTTTGTTGGCCTACGATCTCTTGAATCGTAGGCCAACAAAGATG
With B6, the “Average IL-2 % inhibition” value in data set [6] was determined as 52.1%. Moreover, the “Average cMAC mRNA % Inhib.” value in data set [7] turned out to be 30.1%.

B7: cMAC BL8: shDNA construct in pLKO.1 lentiviral vector, target sequence gtcaggtgccacatgagaa (SEQ ID NO: 123) (nucleic acid)
sense: CCGGGTCAGGTGCCACATGAGAATTCAAGAGATTCTCATGTGGCACCTGACTTTTT
antisense: AATTAAAAAGTCAGGTGCCACATGAGAATCTCTTGAATTCTCATGTGGCACCTGAC
For the molecule B7, in data set [6], the IL-2 reduction entry is recorded as “without any IL-2 reduction” and the “Average IL-2 % inhibition” value was determined as 8.03%. Further, the “Average cMAC mRNA % Inhib.” value in data set [7] stood at 70.1%. The “Average cMAC mRNA % Inhib.” value in data set [7] (listed as BL8) came to 70%.

B8: cMAC BL4: shDNA construct in pLKO.1 lentiviral vector, target sequence ggttatctgttgcccaaga (SEQ ID NO: 111) (nucleic acid)
sense: CCGGGGTTATCTGTTGCCCAAGATTCAAGAGATCTTGGGCAACAGATAACCTTTTT
antisense: AATTAAAAAGGTTATCTGTTGCCCAAGATCTCTTGAATCTTGGGCAACAGATAACC
B8: in data set [6], the “Average IL-2 % inhibition” value came out at 65.7%. For the same molecule, the “Average cMAC mRNA % Inhib.” value in data set [7] came to 56.2%.

B9: cMAC BL7: shDNA construct in pLKO.1 lentiviral vector, target sequence ccgggtttccctattccaa (SEQ ID NO: 120) (nucleic acid)
sense: CCGGCCGGGTTTCCCTATTCCAATTCAAGAGATTGGAATAGGGAAACCCGGTTTTT
antisense: AATTAAAAACCGGGTTTCCCTATTCCAATCTCTTGAATTGGAATAGGGAAACCCGG
For B9, the “Average IL-2 % inhibition” value in data set [6] came to 40.8%. Moreover, in data set [7], the “Average cMAC mRNA % Inhib.” value was 66.4%.

B10: cMAC BL2: shDNA construct in pLKO.1 lentiviral vector, target sequence gcctttgttagatctatca (SEQ ID NO: 105) (nucleic acid)
sense: CCGGGCCTTTGTTAGATCTATCATTCAAGAGATGATAGATCTAACAAAGGCTTTTT
antisense: AATTAAAAAGCCTTTGTTAGATCTATCATCTCTTGAATGATAGATCTAACAAAGGC
B10: the “Average IL-2 % inhibition” value in data set [6] came out at 75.5%. Further, in data set [7], the “Average cMAC mRNA % Inhib.” value came out at 72.6%.
